Blank lines part the entries; values can stand above or below the binder they belong to.
Experiments:
[1] = molecular target: T1, human CD47 expressed on the cell surface (human, UniProt Q08722 19-323); test: blocking of human SIRPα binding to OCI-Ly3 cells (FIG. 21)
T1 construct: whole, on cells; also called CD47 on Raji, OCI-Ly3, Fadu cells, human RBCs, platelets and blood cells

[2] = molecular target: T2, CD20 on cells (Raji cells, human B cells) (human, UniProt P11836 1-297); test: binding to Raji cells (CD20+/CD47+), FIG. 17
T2 construct: whole, on cells; The cells that carry it (Raji, B cells) also carry CD47
T2 sequence (looked up): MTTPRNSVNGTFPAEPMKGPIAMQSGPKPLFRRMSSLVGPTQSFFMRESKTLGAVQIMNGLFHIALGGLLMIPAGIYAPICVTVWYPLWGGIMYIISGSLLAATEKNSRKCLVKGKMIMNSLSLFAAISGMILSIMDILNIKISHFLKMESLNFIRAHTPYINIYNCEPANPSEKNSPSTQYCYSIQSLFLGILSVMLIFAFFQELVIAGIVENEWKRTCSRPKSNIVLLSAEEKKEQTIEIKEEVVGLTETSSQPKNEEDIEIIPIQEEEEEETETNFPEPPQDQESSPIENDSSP

[3] = molecular target: T1, human CD47 expressed on the cell surface; test: cell-based or functional assay

- EC50 [1]: 0.11 nM
B1: TPP-23 (408_437 Fab with IgG1) (antibody, V domains shown)
VH: QMQLVQSGAEVKKPGSSVKVSCKASGFNIKDYYLHWVRQAPGKGLEWMGWIDPDQGDTEYAQKFQGRVTITRDRSTSTAYMELRSLRAEDTAVYYCNAAYGSSSYPMDYWGQGTLVTVSS
VL: NIQMTQSPSSLSASVGDRVTITCRASQDIHRYLSWFQQKPGKVPKHLIYRANRLVSGVPSRFSGSGSGTEFTLTISSLQPEDFATYYCLQYDEFPYTFGGGTKVEIK
notes: also called parental CD47 mAb

- EC50 [2]: ~1.1 nM
B2: rituximab (antibody, human IgG1, kappa, V domains shown)
VH: QVQLQQPGAELVKPGASVKMSCKASGYTFTSYNMHWVKQTPGRGLEWIGAIYPGNGDTSYNQKFKGKATLTADKSSSTAYMQLSSLTSEDSAVYYCARSTYYGGDWYFNVWGAGTTVTVSA
VL: QIVLSQSPAILSASPGEKVTMTCRASSSVSYIHWFQQKPGSSPKPWIYATSNLASGVPVRFSGSGSGTSYSLTISRVEAEDAATYYCQQWTSNPPTFGGGTKLEIKR
notes: Anti-CD20 antibody, bivalent to CD20; also called rituxan

- EC50, activation of macrophage phagocytosis of OCI-Ly3 cells [3]: 1.4 nM
- EC50, activation of macrophage phagocytosis of Raji cells [3]: 1.8 nM
B3: TPP-1360 (bispecific antibody, human IgG1, kappa)
light 1: NIQMTQSPSSLSASVGDRVTITCRASQDIHRYLSWFQQKPGKVPKHLIYRESRFVDGVPSRFSGSGSGTEFTLTISSLQPEDFATYYCLQYDEFPYTFGGGTKVEIKRTVAAPSVFIFPPSDEELKSGTASVVCWLNNFYPREAKVQWKVDNALQSGNSEESVTEQDSKDSTYSLSSTLELSKADYEKHKVYACEVTHQGLSSPVTKSFNRGEC
heavy 1: QMQLVQSGAEVKKPGSSVKVSCKASGFNIKDYYLHWVRQAPGKGLEWMGWIDPDQGDTYYAQKFQGRVTITRDRSTSTAYMELRSLRAEDTAVYYCNAAYGESSYPMDYWGQGTLVTVSSASTKGPSVFPLAPSSKSTSGGTAALGCLVKDYFPEPVTVSWNSGALTSGVHTFPAVLKSSGLYSLSSVVTVPSSSLGTQTYICNVNHKPSNTKVDKKVEPKSCDKTHTCPPCPAPELLGGPSVFLFPPKPKDTLMISRTPEVTCVVVDVSHEDPEVKFNWYVDGVEVHNAKTKPREEQYNSTYRVVSVLTVLHQDWLNGKEYKCKVSNKALPAPIEKTISKAKGQPREPQVYVLPPSREEMTKNQVSLLCLVKGFYPSDIAVEWESNGQPENNYLTWPPVLDSDGSFFLYSKLTVDKSRWQQGNVFSCSVMHEALHNHYTQKSLSLSPGK
light 2: QIVLSQSPAILSASPGEKVTMTCRASSSVSYIHWFQQKPGSSPKPWIYATSNLASGVPVRFSGSGSGTSYSLTISRVEAEDAATYYCQQWTSNPPTFGGGTKLEIKRTVAAPSVAIFPPSDERLKSGTASVVCVLNNFYPREAKVQWKVDNALQSGNSQESVTEQDSKDSTYSLSSRLTLSKADYEKHKVYACEVTHQGLSSPVTKSFNRGEC
heavy 2: QVQLQQPGAELVKPGASVKMSCKASGYTFTSYNMHWVKQTPGRGLEWIGAIYPGNGDTSYNQKFKGKATLTADKSSSTAYMQLSSLTSEDSAVYYCARSTYYGGDWYFNVWGAGTTVTVSAASTKGPSVFPLAPSSKSTSGGTAWLGCEVTDYFPEPVTVSWNSGALTSGVHTFPAVLESSGLYSLSSVVTVPSSSLGTQTYICNVNHKPSNTKVDKKVEPKSCDKTHTCPPCPAPELLGGPSVFLFPPKPKDTLMISRTPEVTCVVVDVSHEDPEVKFNWYVDGVEVHNAKTKPREEQYNSTYRVVSVLTVLHQDWLNGKEYKCKVSNKALPAPIEKTISKAKGQPREPQVYVYPPSREEMTKNQVSLTCLVKGFYPSDIAVEWESNGQPENNYKTTPPVLDSDGSFALVSKLTVDKSRWQQGNVFSCSVMHEALHNHYTQKSLSLSPGK
